The record followed here is patent publication US20220288219A1 (MYTHIC THERAPEUTICS, published 2022).

T1: CD22 Protein (His Tag), Sino Biological Cat. No. 11958-H08H (UniProt P20273 20-687)
T1 construct: soluble analyte, 50 nM in BLI; also called Sino Biological antigen
T1 sequence (looked up): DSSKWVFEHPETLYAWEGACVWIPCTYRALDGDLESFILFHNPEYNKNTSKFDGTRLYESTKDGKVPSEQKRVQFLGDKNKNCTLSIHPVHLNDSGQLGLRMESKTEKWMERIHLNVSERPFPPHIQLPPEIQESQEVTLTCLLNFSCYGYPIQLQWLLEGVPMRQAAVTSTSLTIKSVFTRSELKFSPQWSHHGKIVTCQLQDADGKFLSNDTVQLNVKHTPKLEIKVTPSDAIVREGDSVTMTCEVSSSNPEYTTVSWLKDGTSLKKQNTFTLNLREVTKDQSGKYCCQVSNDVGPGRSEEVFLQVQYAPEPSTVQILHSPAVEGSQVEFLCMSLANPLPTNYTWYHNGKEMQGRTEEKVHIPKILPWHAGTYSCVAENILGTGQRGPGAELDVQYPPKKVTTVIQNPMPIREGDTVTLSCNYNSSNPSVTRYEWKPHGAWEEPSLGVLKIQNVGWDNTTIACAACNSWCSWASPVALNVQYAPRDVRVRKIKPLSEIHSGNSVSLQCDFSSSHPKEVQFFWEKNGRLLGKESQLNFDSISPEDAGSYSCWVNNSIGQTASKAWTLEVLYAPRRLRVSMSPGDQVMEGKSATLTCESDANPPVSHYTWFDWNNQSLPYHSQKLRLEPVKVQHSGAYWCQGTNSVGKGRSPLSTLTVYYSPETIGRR

B1: MYT1496 (antibody, V domains shown)
VH: QVQLVQSGAEVKKPGSSVKVSCKASHYTFTSYWLHWVRQAPGQGLEWIGYINPRNDYTEYNQNFKDKATITADESTNTAYMELSSLRSEDTAFYFCARRDITTFYWGQGTTVTVSS
VL: DIQLTQSPSSLSASVGDRVTMSCKSSQSVLYSANHKNYLAWYQQKPGKAPKLLIYWASTRESGVPSRFSGSGSGTDFTFTISSLQPEDIATYYCHQYLSSWTFGGGTKVQIK
notes: ADCT-602 VH G26H; tie by order
B2: MYT1521 (antibody, V domains shown)
VH: QVQLVQSGAEVKKPGSSVKVSCKASGYTFTSYWLHWVRQAPGQGLEWIGYINPRNDYTEYNQNFHDKATITADESTNTAYMELSSLRSEDTAFYFCARRDITTFYWGQGTTVTVSS
VL: DIQLTQSPSSLSASVGDRVTMSCKSSQSVLYSANHKNYLAWYQQKPGKAPKLLIYWASTRESGVPSRFSGSGSGTDFTFTISSLQPEDIATYYCHQYLSSWTFGGGTKVQIK
notes: ADCT-602 VH K65H; tie by order
B3: MYT1504 (antibody, V domains shown)
VH: QVQLVQSGAEVKKPGSSVKVSCKASGYTFTSYWHHWVRQAPGQGLEWIGYINPRNDYTEYNQNFKDKATITADESTNTAYMELSSLRSEDTAFYFCARRDITTFYWGQGTTVTVSS
VL: DIQLTQSPSSLSASVGDRVTMSCKSSQSVLYSANHKNYLAWYQQKPGKAPKLLIYWASTRESGVPSRFSGSGSGTDFTFTISSLQPEDIATYYCHQYLSSWTFGGGTKVQIK
notes: ADCT-602 VH L34H; tie by order
B4: MYT1526 (antibody, V domains shown)
VH: QVQLVQSGAEVKKPGSSVKVSCKASGYTFTSYWLHWVRQAPGQGLEWIGYINPRNDYTEYNQNFKDKATITADESTNTAYMELSSLRSEDTAFYFCARRHITTFYWGQGTTVTVSS
VL: DIQLTQSPSSLSASVGDRVTMSCKSSQSVLYSANHKNYLAWYQQKPGKAPKLLIYWASTRESGVPSRFSGSGSGTDFTFTISSLQPEDIATYYCHQYLSSWTFGGGTKVQIK
notes: ADCT-602 VH D100H; tie by order
B5: MYT1497 (antibody, V domains shown)
VH: QVQLVQSGAEVKKPGSSVKVSCKASGHTFTSYWLHWVRQAPGQGLEWIGYINPRNDYTEYNQNFKDKATITADESTNTAYMELSSLRSEDTAFYFCARRDITTFYWGQGTTVTVSS
VL: DIQLTQSPSSLSASVGDRVTMSCKSSQSVLYSANHKNYLAWYQQKPGKAPKLLIYWASTRESGVPSRFSGSGSGTDFTFTISSLQPEDIATYYCHQYLSSWTFGGGTKVQIK
notes: ADCT-602 VH Y27H; tie by order
B6: MYT1505 (antibody, V domains shown)
VH: QVQLVQSGAEVKKPGSSVKVSCKASGYTFTSYWLAWVRQAPGQGLEWIGYINPRNDYTEYNQNFKDKATITADESTNTAYMELSSLRSEDTAFYFCARRDITTFYWGQGTTVTVSS
VL: DIQLTQSPSSLSASVGDRVTMSCKSSQSVLYSANHKNYLAWYQQKPGKAPKLLIYWASTRESGVPSRFSGSGSGTDFTFTISSLQPEDIATYYCHQYLSSWTFGGGTKVQIK
notes: ADCT-602 VH H35A; tie by order
B7: MYT1509 (antibody, V domains shown)
VH: QVQLVQSGAEVKKPGSSVKVSCKASGYTFTSYWLHWVRQAPGQGLEWIGYINHRNDYTEYNQNFKDKATITADESTNTAYMELSSLRSEDTAFYFCARRDITTFYWGQGTTVTVSS
VL: DIQLTQSPSSLSASVGDRVTMSCKSSQSVLYSANHKNYLAWYQQKPGKAPKLLIYWASTRESGVPSRFSGSGSGTDFTFTISSLQPEDIATYYCHQYLSSWTFGGGTKVQIK
notes: ADCT-602 VH P53H; tie by order
B8: MYT1527 (antibody, V domains shown)
VH: QVQLVQSGAEVKKPGSSVKVSCKASGYTFTSYWLHWVRQAPGQGLEWIGYINPRNDYTEYNQNFKDKATITADESTNTAYMELSSLRSEDTAFYFCARRDHTTFYWGQGTTVTVSS
VL: DIQLTQSPSSLSASVGDRVTMSCKSSQSVLYSANHKNYLAWYQQKPGKAPKLLIYWASTRESGVPSRFSGSGSGTDFTFTISSLQPEDIATYYCHQYLSSWTFGGGTKVQIK
notes: ADCT-602 VH I101H; tie by order
B9: MYT1507 (antibody, V domains shown)
VH: QVQLVQSGAEVKKPGSSVKVSCKASGYTFTSYWLHWVRQAPGQGLEWIGYHNPRNDYTEYNQNFKDKATITADESTNTAYMELSSLRSEDTAFYFCARRDITTFYWGQGTTVTVSS
VL: DIQLTQSPSSLSASVGDRVTMSCKSSQSVLYSANHKNYLAWYQQKPGKAPKLLIYWASTRESGVPSRFSGSGSGTDFTFTISSLQPEDIATYYCHQYLSSWTFGGGTKVQIK
notes: ADCT-602 VH I51H; tie by order
B10: MYT1523 (antibody, V domains shown)
VH: QVQLVQSGAEVKKPGSSVKVSCKASGYTFTSYWLHWVRQAPGQGLEWIGYINPRNDYTEYNQNFKDKATITADESTNTAYMELSSLRSEDTAFYFCHRRDITTFYWGQGTTVTVSS
VL: DIQLTQSPSSLSASVGDRVTMSCKSSQSVLYSANHKNYLAWYQQKPGKAPKLLIYWASTRESGVPSRFSGSGSGTDFTFTISSLQPEDIATYYCHQYLSSWTFGGGTKVQIK
notes: ADCT-602 VH A97H; tie by order
B11: MYT1525 (antibody, V domains shown)
VH: QVQLVQSGAEVKKPGSSVKVSCKASGYTFTSYWLHWVRQAPGQGLEWIGYINPRNDYTEYNQNFKDKATITADESTNTAYMELSSLRSEDTAFYFCARHDITTFYWGQGTTVTVSS
VL: DIQLTQSPSSLSASVGDRVTMSCKSSQSVLYSANHKNYLAWYQQKPGKAPKLLIYWASTRESGVPSRFSGSGSGTDFTFTISSLQPEDIATYYCHQYLSSWTFGGGTKVQIK
notes: ADCT-602 VH R99H; tie by order
B12: MYT1498 (antibody, V domains shown)
VH: QVQLVQSGAEVKKPGSSVKVSCKASGYHFTSYWLHWVRQAPGQGLEWIGYINPRNDYTEYNQNFKDKATITADESTNTAYMELSSLRSEDTAFYFCARRDITTFYWGQGTTVTVSS
VL: DIQLTQSPSSLSASVGDRVTMSCKSSQSVLYSANHKNYLAWYQQKPGKAPKLLIYWASTRESGVPSRFSGSGSGTDFTFTISSLQPEDIATYYCHQYLSSWTFGGGTKVQIK
notes: ADCT-602 VH T28H; tie by order
B13: MYT1513 (antibody, V domains shown)
VH: QVQLVQSGAEVKKPGSSVKVSCKASGYTFTSYWLHWVRQAPGQGLEWIGYINPRNDHTEYNQNFKDKATITADESTNTAYMELSSLRSEDTAFYFCARRDITTFYWGQGTTVTVSS
VL: DIQLTQSPSSLSASVGDRVTMSCKSSQSVLYSANHKNYLAWYQQKPGKAPKLLIYWASTRESGVPSRFSGSGSGTDFTFTISSLQPEDIATYYCHQYLSSWTFGGGTKVQIK
notes: ADCT-602 VH Y57H; tie by order
B14: MYT1499 (antibody, V domains shown)
VH: QVQLVQSGAEVKKPGSSVKVSCKASGYTHTSYWLHWVRQAPGQGLEWIGYINPRNDYTEYNQNFKDKATITADESTNTAYMELSSLRSEDTAFYFCARRDITTFYWGQGTTVTVSS
VL: DIQLTQSPSSLSASVGDRVTMSCKSSQSVLYSANHKNYLAWYQQKPGKAPKLLIYWASTRESGVPSRFSGSGSGTDFTFTISSLQPEDIATYYCHQYLSSWTFGGGTKVQIK
notes: ADCT-602 VH F29H; tie by order
B15: MYT1508 (antibody, V domains shown)
VH: QVQLVQSGAEVKKPGSSVKVSCKASGYTFTSYWLHWVRQAPGQGLEWIGYIHPRNDYTEYNQNFKDKATITADESTNTAYMELSSLRSEDTAFYFCARRDITTFYWGQGTTVTVSS
VL: DIQLTQSPSSLSASVGDRVTMSCKSSQSVLYSANHKNYLAWYQQKPGKAPKLLIYWASTRESGVPSRFSGSGSGTDFTFTISSLQPEDIATYYCHQYLSSWTFGGGTKVQIK
notes: ADCT-602 VH N52H; tie by order
B16: MYT2275 (antibody, V domains shown)
VH: EVQLVESGGGLVKPGGSLRLSCAASGFAFSHYDMSWVRQAPGKGLEWVAYISSGGGTTYYPDTVKGRFTISRDNAKNSLYLQMSSLRAEDTAMYYCARHSGYGSSYGVLFAYWGQGTLVTVSS
VL: DIQMTQSPSSLSASVGDRVTITCRASQDISNYLNWYQQKPGKAVKLLIYYTSILHSGVPSRFSGSGSGTDYTLTISSLQQEDFATYFCQQGNTLPWTFGGGTKVEIK
notes: TRPH-222 VH I31H; tie by order
B17: MYT2301 (antibody, V domains shown)
VH: EVQLVESGGGLVKPGGSLRLSCAASGFAFSIYDMSWVRQAPGKGLEWVAYISSGGGTTYYPDTVKGRFTISRDNAKNSLYLQMSSLRAEDTAMYYCARHSHYGSSYGVLFAYWGQGTLVTVSS
VL: DIQMTQSPSSLSASVGDRVTITCRASQDISNYLNWYQQKPGKAVKLLIYYTSILHSGVPSRFSGSGSGTDYTLTISSLQQEDFATYFCQQGNTLPWTFGGGTKVEIK
notes: TRPH-222 VH G101H; tie by order
B18: MYT2303 (antibody, V domains shown)
VH: EVQLVESGGGLVKPGGSLRLSCAASGFAFSIYDMSWVRQAPGKGLEWVAYISSGGGTTYYPDTVKGRFTISRDNAKNSLYLQMSSLRAEDTAMYYCARHSGYHSSYGVLFAYWGQGTLVTVSS
VL: DIQMTQSPSSLSASVGDRVTITCRASQDISNYLNWYQQKPGKAVKLLIYYTSILHSGVPSRFSGSGSGTDYTLTISSLQQEDFATYFCQQGNTLPWTFGGGTKVEIK
notes: TRPH-222 VH G103H; tie by order

This test has as its target T1, CD22 Protein (His Tag), Sino Biological …. The test is described as follows: BLI, IgG on anti-human Fc sensor. Background: In BLI a coated tip is dipped into the sample, and binding shifts an interference pattern.
For the molecule B1, the binding result was “no binding (tested: 50 nM)”.

Turning to B2, the binding result was “no binding (tested: 50 nM)”.

Consider B3, for which the binding result is recorded as “no binding (tested: 50 nM)”.

Consider B4, for which the binding result is given as “no binding (tested: 50 nM)”.

With B5, the binding result is “no binding (tested: 50 nM)”.

As for B6, the binding result was “no binding (tested: 50 nM)”.

As for B7, the binding result was “no binding (tested: 50 nM)”.

For B8, the binding result is “no binding (tested: 50 nM)”.

In the case of B9, the binding result is “no binding (tested: 50 nM)”.

Turning to B10, the binding result was “no binding (tested: 50 nM)”.

B11: the binding result is “no binding (tested: 50 nM)”.

As to B12, the binding result is “no binding (tested: 50 nM)”.

Turning to B13, the binding result is listed as “no binding (tested: 50 nM)”.

For the molecule B14, the binding result is “no binding (tested: 50 nM)”.

Consider B15, for which the binding result is recorded as “no binding (tested: 50 nM)”.

As to B16, the binding result is “no binding (tested: 50 nM)”.

Take B17: the binding result is given as “no binding (tested: 50 nM)”.

Take B18: the binding result is given as “no binding (tested: 50 nM)”.
